B1: XENP14701 (bispecific antibody)
heavy: EVQLVESGGGLVQPGGSLRLSCAASGFDFSRSWMNWVRQAPGKGLEWVSEINPDSSTINYATSVKGRFTISRDNSKNTLYLQMNSLRAEDTAVYYCARYGNWFPYWGQGTLVTVSSASTKGPSVFPLAPSSKSTSGGTAALGCLVKDYFPEPVTVSWNSGALTSGVHTFPAVLQSSGLYSLSSVVTVPSSSLGTQTYICNVNHKPSDTKVDKKVEPKSCDKTHTCPPCPAPPVAGPSVFLFPPKPKDTLMISRTPEVTCVVVDVKHEDPEVKFNWYVDGVEVHNAKTKPREEEYNSTYRVVSVLTVLHQDWLNGKEYKCKVSNKALPAPIEKTISKAKGQPREPQVYTLPPSREEMTKNQVSLTCDVSGFYPSDIAVEWESDGQPENNYKTTPPVLDSDGSFFLYSKLTVDKSRWEQGDVFSCSVMHEALHNHYTQKSLSLSPGK
scFv-Fc: not shown
light: DIVMTQSPSSLSASVGDRVTITCRASQNVDTNVAWYQQKPGQSPKALIYSASYRYSGVPDRFTGSGSGTDFTLTISSLQPEDFATYFCQQYDSYPLTFGGGTKLEIKRTVAAPSVFIFPPSDEQLKSGTASVVCLLNNFYPREAKVQWKVDNALQSGNSQESVTEQDSKDSTYSLSSTLTLSKADYEKHKVYACEVTHQGLSSPVTKSFNRGEC
notes: anti-CD38 x anti-CD3; copies: 1 + 1 + 1
B2: XENP14703 (bispecific antibody)
heavy: B1 heavy
scFv-Fc: not shown
light: B1 light with Y55K
notes: anti-CD38 x anti-CD3
B3: XmAb14702 (bispecific antibody)
heavy: B1 heavy with D28T, R31Y, D54Q
scFv-Fc: not shown
light: B1 light with N32W
B4: XENP14388 (bispecific antibody)
HC 1 (Fab-Fc): QVQLVQSGAEVKKPGASVKVSCKASGYTFTSYNMHWVRQAPGQRLEWMGAIYPGNGATSYSQKFQGRVTITADTSASTAYMELSSLRSEDTAVYYCARSYYMGGDWYFDVWGAGTLVTVSSASTKGPSVFPLAPSSKSTSGGTAALGCLVKDYFPEPVTVSWNSGALTSGVHTFPAVLQSSGLYSLSSVVTVPSSSLGTQTYICNVNHKPSDTKVDKKVEPKSCDKTHTCPPCPAPPVAGPSVFLFPPKPKDTLMISRTPEVTCVVVDVKHEDPEVKFNWYVDGVEVHNAKTKPREEEYNSTYRVVSVLTVLHQDWLNGKEYKCKVSNKALPAPIEKTISKAKGQPREPQVYTLPPSREEMTKNQVSLTCDVSGFYPSDIAVEWESDGQPENNYKTTPPVLDSDGSFFLYSKLTVDKSRWEQGDVFSCSVMHEALHNHYTQKSLSLSPGK
HC 2 (scFv-Fc): not shown
light: QIVLTQSPSSLSASVGDRVTITCRASWSVSYIHWFQQKPGKSPKPLIYATSNLASGVPVRFSGSGSGTDYTLTISSLQPEDFATYYCQQWTHNPPTFGGGTKVEIKRTVAAPSVFIFPPSDEQLKSGTASVVCLLNNFYPREAKVQWKVDNALQSGNSQESVTEQDSKDSTYSLSSTLTLSKADYEKHKVYACEVTHQGLSSPVTKSFNRGEC
notes: anti-CD3 scFv H1.31_L1.47; also called Anti-CD20 (C2B8_H1.202_L1.113) x Anti-CD3 (H1.31_L1.47) Fab-scFv-Fc; CD3low
B5: XENP16376 (bispecific antibody)
HC 1 (Fab-Fc): B4 HC 1 (Fab-Fc)
HC 2 (scFv-Fc): not shown
light: B4 light
notes: anti-CD3 scFv H1.108_L1.47; also called Anti-CD20 (C2B8_H1.202_L1.113) x Anti-CD3 (H1.108_L1.47) Fab-scFv-Fc
B6: XENP16375 (bispecific antibody)
HC 1 (Fab-Fc): B4 HC 1 (Fab-Fc)
HC 2 (scFv-Fc): not shown
light: B4 light
notes: anti-CD3 scFv H1.107_L1.47; also called Anti-CD20 (C2B8_H1.202_L1.113) x Anti-CD3 (H1.107_L1.47) Fab-scFv-Fc
B7: XENP16373 (bispecific antibody)
HC 1 (Fab-Fc): B4 HC 1 (Fab-Fc)
HC 2 (scFv-Fc): EVQLVESGGGLVQPGGSLRLSCAASGFTFSTYAMNWVRQAPGKGLEWVGRIRSKYNNYATYYADSVKGRFTISRDDSKNTLYLQMNSLRAEDTAVYYCVRHGNFGDQYVSWFDYWGQGTLVTVSSGKPGSGKPGSGKPGSGKPGSQAVVTQEPSLTVSPGGTVTLTCGSSTGAVTTSNYANWVQQKPGKSPRGLIGGTNKRAPGVPARFSGSLLGGKAALTISGAQPEDEADYYCALWYSNHWVFGGGTKLTVLEPKSSDKTHTCPPCPAPPVAGPSVFLFPPKPKDTLMISRTPEVTCVVVDVKHEDPEVKFNWYVDGVEVHNAKTKPREEQYNSTYRVVSVLTVLHQDWLNGKEYKCKVSNKALPAPIEKTISKAKGQPREPQVYTLPPSREQMTKNQVKLTCLVKGFYPSDIAVEWESNGQPENNYKTTPPVLDSDGSFFLYSKLTVDKSRWQQGNVFSCSVMHEALHNHYTQKSLSLSPGK
light: B4 light
notes: anti-CD3 scFv H1.105_L1.47; also called Anti-CD20 (C2B8_H1.202_L1.113) x Anti-CD3 (H1.105_L1.47) Fab-scFv-Fc
B8: XENP14390 (bispecific antibody)
HC 1 (Fab-Fc): B4 HC 1 (Fab-Fc)
HC 2 (scFv-Fc): not shown
light: B4 light
notes: anti-CD3 scFv H1.33_L1.47; also called Anti-CD20 (C2B8_H1.202_L1.113) x Anti-CD3 (H1.33_L1.47) Fab-scFv-Fc; CD3med
B9: XENP16374 (bispecific antibody)
HC 1 (Fab-Fc): B4 HC 1 (Fab-Fc)
HC 2 (scFv-Fc): not shown
light: B4 light
notes: anti-CD3 scFv H1.106_L1.47; also called Anti-CD20 (C2B8_H1.202_L1.113) x Anti-CD3 (H1.106_L1.47) Fab-scFv-Fc
B10: XENP14389 (bispecific antibody)
HC 1 (Fab-Fc): B4 HC 1 (Fab-Fc)
HC 2 (scFv-Fc): not shown
light: B4 light
notes: anti-CD3 scFv H1.32_L1.47; also called Anti-CD20 (C2B8_H1.202_L1.113) x Anti-CD3 (H1.32_L1.47) Fab-scFv-Fc
B11: XENP14392 (bispecific antibody)
HC 1 (Fab-Fc): B4 HC 1 (Fab-Fc)
HC 2 (scFv-Fc): not shown
light: B4 light
notes: anti-CD3 scFv H1.89_L1.47; also called Anti-CD20 (C2B8_H1.202_L1.113) x Anti-CD3 (H1.89_L1.47) Fab-scFv-Fc
B12: XENP14393 (bispecific antibody)
HC 1 (Fab-Fc): B4 HC 1 (Fab-Fc)
HC 2 (scFv-Fc): not shown
light: B4 light
notes: anti-CD3 scFv H1.90_L1.47; also called Anti-CD20 (C2B8_H1.202_L1.113) x Anti-CD3 (H1.90_L1.47) Fab-scFv-Fc
B13: 13928B (bispecific antibody)
Heavy Chain 1 (Anti-CD123 Fab-Fc (7G3_H0)): EVQLQQSGPELVKPGASVKMSCKASGYTFTDYYMKWVKQSHGKSLEWIGDIIPSNGATFYNQKFKGKATLTVDRSSSTAYMHLNSLTSEDSAVYYCTRSHLLRASWFAYWGQGTLVTVSAASTKGPSVFPLAPSSKSTSGGTAALGCLVKDYFPEPVTVSWNSGALTSGVHTFPAVLQSSGLYSLSSVVTVPSSSLGTQTYICNVNHKPSDTKVDKKVEPKSCDKTHTCPPCPAPPVAGPSVFLFPPKPKDTLMISRTPEVTCVVVDVKHEDPEVKFNWYVDGVEVHNAKTKPREEEYNSTYRVVSVLTVLHQDWLNGKEYKCKVSNKALPAPIEKTISKAKGQPREPQVYTLPPSREEMTKNQVSLTCDVSGFYPSDIAVEWESDGQPENNYKTTPPVLDSDGSFFLYSKLTVDKSRWEQGDVFSCSVMHEALHNHYTQKSLSLSPGK
Heavy Chain 2 (Anti-CD3 scFv-Fc (aCD3_H1.30_L1.47)): not shown
Light Chain (Anti-CD123 LC (7G3_L0)): DFVMTQSPSSLTVTAGEKVTMSCKSSQSLLNSGNQKNYLTWYLQKPGQPPKLLIYWASTRESGVPDRFTGSGSGTDFTLTISSVQAEDLAVYYCQNDYSYPYTFGGGTKLEIKRTVAAPSVFIFPPSDEQLKSGTASVVCLLNNFYPREAKVQWKVDNALQSGNSQESVTEQDSKDSTYSLSSTLTLSKADYEKHKVYACEVTHQGLSSPVTKSFNRGEC

Where a chain is given by its changes, count along the chain named.

The target of the first assay is T1, CD3 (Homo sapiens (Human), UniProt P07766 23-126; P04234 22-105).
T1 construct: not shown: The Fc carrier of the Sino Biological CD3 delta-epsilon-Fc heterodimer; copies: 1 + 1
T1 sequence (P07766 23-126 limits assumed, chain 1 of 2): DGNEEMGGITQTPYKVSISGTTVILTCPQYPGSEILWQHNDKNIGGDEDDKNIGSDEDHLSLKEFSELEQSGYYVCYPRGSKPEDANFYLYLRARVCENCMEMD
T1 sequence (P04234 22-105 limits assumed, chain 2 of 2): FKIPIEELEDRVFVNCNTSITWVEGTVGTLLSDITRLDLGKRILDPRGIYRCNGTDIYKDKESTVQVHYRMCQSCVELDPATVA
Nature of the assay: Biacore.
On to B1, for which the “Fold Decrease in CD3 binding from H1.30_L1.47” value (“Fold Decrease in CD3 binding” for short) came to 330 fold.

On to B2, for which the “Fold Decrease in CD3 binding” value turned out to be 330 fold.

Consider B3, for which the “Fold Decrease in CD3 binding” value was determined as 330 fold.

The target of another assay is T2, cyno CD3 (cynomolgus monkey, UniProt Q95LI5 22-117; Q95LI8 22-105).
T2 construct: The legend says only cyno CD3; also called cynomolgus monkey CD3
T2 sequence (Q95LI5 22-117, form in doubt, chain 1 of 2): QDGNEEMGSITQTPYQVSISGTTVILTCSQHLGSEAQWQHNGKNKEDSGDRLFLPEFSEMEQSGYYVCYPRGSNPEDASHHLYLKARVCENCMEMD
T2 sequence (Q95LI8 22-105, form in doubt, chain 2 of 2): as the sequence (P04234 22-105 limits assumed, chain 2 of 2) above, with I5V, N15K, I20V, S32T, D33N, I34N, T64A, S74N, V83L counted along it
Nature of the assay: SPR; cynomolgus monkey CD3-Fc (printed 'CD388-Fc', Sino Biological) covalently bound to the chip; test article passed over at 31.25, 125, 500 and 2000 nM.
With B4, binding was characterised by a dissociation constant (Kd) of 1200 nM.

As for B5, the Kd came out at 860 nM.

Consider B6, for which the Kd came to 880 nM.

Molecule B7 showed a Kd of 420 nM.

B8 had a Kd of 160 nM.

As for B9, the Kd was 1100 nM.

A further assay deals with T2, cyno CD3. Nature of the assay: SPR; cynomolgus monkey CD3-Fc (printed 'CD388-Fc', Sino Biological) covalently bound to the chip; test article passed over at 3.125, 12.5, 50 and 200 nM.
On to B4, for which the Kd was about 1000 nM.

In turn, B10 displayed an equilibrium dissociation constant (Kd) of 45 nM.

For B11, the equilibrium dissociation constant (Kd) stood at 110 nM.

B8 showed a Kd of 100 nM.

For B12, the dissociation constant (Kd) amounted to 120 nM.

A further assay deals with T3, human CD3 (human, UniProt P07766 23-126; P04234 22-105).
T3 construct: The legend says only human CD3
T3 sequence (P07766 23-126, chain 1 of 2): as the sequence (P07766 23-126 limits assumed, chain 1 of 2) above
T3 sequence (P04234 22-105, chain 2 of 2): as the sequence (P04234 22-105 limits assumed, chain 2 of 2) above
The assay is described as follows: SPR; human CD3-Fc (printed 'CD388-Fc', Sino Biological) covalently bound to the chip; test article passed over at 31.25, 125, 500 and 2000 nM.
With B4, the dissociation constant (Kd) stood at 1200 nM.

B5 came in with a dissociation constant Kd of 1100 nM.

B6 registered a Kd of 1000 nM.

B7 displayed a Kd of 4000 nM.

The molecule B8 returned a dissociation constant Kd of 220 nM.

In the case of B9, the affinity, expressed as Kd, was 1300 nM.

In the next assay the target is T1, CD3. Nature of the assay: Biacore; column head 'KD (nM)*', anti-CD3 scFv-Fc H1.31_L1.47.
Molecule B1 returned a Kd of 1640 nM.

Take B2: the Kd worked out at 1640 nM.

The molecule B3 had a Kd of 1640 nM.

Another assay has as its target T3, human CD3. The assay is described as follows: SPR; human CD3-Fc (printed 'CD388-Fc', Sino Biological) covalently bound to the chip; test article passed over at 3.125, 12.5, 50 and 200 nM.
Consider B4, for which the Kd is about 2000 nM.

B10 had a Kd of 44 nM.

The molecule B11 showed an equilibrium dissociation constant (Kd) of 120 nM.

As to B8, the Kd was found to be 110 nM.

The molecule B12 gave a Kd of 120 nM.

Another assay deals with CD123 on KG-1a cells (human, UniProt P26951 19-378). Nature of the assay: cell-based or functional assay.
Take B13: the “RTCC % of KG-1a cells: EC50 (read off the curve)” value was about 0.8 ng/mL.

These data come from US20250109215A1 (Xencor, published 2025).
